Data reported in patent US20060259987.
Substitutions are numbered along the chain they refer to.

B1: human neutrophil elastase (protein)
chain: IVGGRRARPHAWPFMVSLQLRGGHFCGATLIAPNFVMSAAHCVANVNVRAVRVVLGAHNLSRREPTRQVFAVQRIFENGYDPVNLLNDIVILQLNGSATINANVQVAQLPAQGRRLGNGVQCLAMGWGLLGRNRGIASVLQELNVTVVTSLCRRSNVCTLVRGRQAGVCFGDSGSPLVCNGLIHGIASFVRGGCASGLYPDAFAPVAQFVNWIDSIIQ
B2: human neutrophil cathepsin G (protein)
chain: IIGGRESRPHSRPYMAYLQIQSPAGQSRCGGFLVREDFVLTAAHCWGSNINVTLGAHNIQRRENTQQHITARRAIRHPQYNQRTIQNDIMLLQLSRRVRRNRNVNPVALPRAQEGLRPGTLCTVAGWGRVSMRRGTDTLREVQLRVQRDRQCLRIFGSYDPRRQICVGDRRERKAAFKGDSGGPLLCNNVAHGIVSYGKSSGVPPEVFTRVSSFLPWIRTTMRS

What was measured:
[1] = molecular target: plasma-derived ATIII, P01008
LEAI.482 = molecular target: T1, LEAI.482
T1 chain: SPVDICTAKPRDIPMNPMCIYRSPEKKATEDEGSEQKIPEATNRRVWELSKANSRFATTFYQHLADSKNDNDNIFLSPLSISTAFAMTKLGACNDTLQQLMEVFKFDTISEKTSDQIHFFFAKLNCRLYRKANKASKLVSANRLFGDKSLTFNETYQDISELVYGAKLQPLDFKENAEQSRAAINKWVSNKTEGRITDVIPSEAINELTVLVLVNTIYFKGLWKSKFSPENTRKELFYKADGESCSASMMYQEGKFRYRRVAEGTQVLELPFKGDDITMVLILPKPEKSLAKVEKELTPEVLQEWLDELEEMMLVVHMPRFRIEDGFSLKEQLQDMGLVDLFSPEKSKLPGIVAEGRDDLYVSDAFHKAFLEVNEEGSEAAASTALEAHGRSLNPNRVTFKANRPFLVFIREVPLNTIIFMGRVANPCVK

LEAI.480 = molecular target: T2, LEAI.480
T2 chain: T1 chain with H389Y

LEAI.472 = molecular target: T3, LEAI.472
T3 chain: T1 chain with H389N

LEAI.474 = molecular target: T4, LEAI.474
T4 chain: T1 chain with H389Q

Protein	Substrate: halflife, min, HNE [1] [min]	Substrate: halflife, min, HNE (LEAI.482) [min]	halflife HNE/hep as a percentage of plasma ATIII value (LEAI.482) [%]	Substrate: halflife, min, HNE (LEAI.480) [min]	halflife HNE/hep as a percentage of plasma ATIII value (LEAI.480) [%]	Substrate: halflife, min, HNE (LEAI.472) [min]	halflife HNE/hep as a percentage of plasma ATIII value (LEAI.472) [%]	Substrate: halflife, min, HNE (LEAI.474) [min]	halflife HNE/hep as a percentage of plasma ATIII value (LEAI.474) [%]	Substrate: halflife, min, CatG (LEAI.482) [min]	Substrate: halflife, min, CatG (LEAI.480) [min]	Substrate: halflife, min, CatG (LEAI.472) [min]	Substrate: halflife, min, CatG (LEAI.474) [min]
B1	2.9	25.3	872	19.9	686	30.1	1038	38.4	1324				
B2										> 240	35.8	333	> 300
